Measured values taken from the nanobody polyreactivity screen of Harvey et al. (2022).

Test: yeast display, Sf9 membrane polyspecificity reagent, FACS + sequencing; frameworks hold sequencing errors
Outline: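 Genes from sorted yeast were amplified by colony PCR, read by MiSeq 2 × 250 sequencing and filtered on CDR length. These cells carried a synthetic nanobody library in Saccharomyces cerevisiae BJ5465 and were sorted by FACS into low and high (top ~1%) gates on anti-HA and streptavidin fluorescence. Polyreactivity is labelled according to the gate of origin.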

Sequence	polyreactivity (PSR sort gate)
QVQLVESGGGLVQAGGSLRLSCAASGSTLYRYAMGWYRQAPGKEREFVAAISVSGARTYYADSVKGRFTISRDNAKNTVYLQMNSLKPEDTAVYYCAARGGYQYDYWGQGTQVTVSS	high polyreactivity
QVQLVESGGGLVQAGGSLRLSCAASGSTLYRYAMGWYRQAPGKERELVAAISSAGSTHYADSVKGRFTISRDNAKNTVYLQMNSLKPEDTAVYYCAAKRYLKYGYWGQGTQVTVSS	high polyreactivity
QVQLVESGGGLVQAGGSLRLSCAASGSTLYRYTMGWYRQAPGKERELVAAISSGGNTYYADSVKGRFTISRDNAKNTVYLQMNSLKPEDTAVYYCAAEDSVYIPYYDAYDYWGQGTQVTVSS	low polyreactivity
QVQLVESGGGLVQAGGSLRLSCAASGSTLYSNAMGWYRQAPGKERELVATIDWSGGRTYYADSVKGRFTISRDNAKNTVYLQMNSLKPEDTAVYYCAARQSRDFRYRGFYYWGQGTQVTVSS	high polyreactivity
QVQLVESGGGLVQAGGSLRLSCAASGSTLYTYAMGWYRQAPGKERELVATISWSGSSTYYADSVKGRFTISRDNAKNTVYLQMNSLKPEDTAVYDCAAPYHYWYRLDYWGQGTQVTVSA	high polyreactivity
QVQLVESGGGLVQAGGSLRLSCAASGSTLYVYTMGWYRQAPGKERELVATINTSGSRTYYADSVKGRFTISRDNAKNTVYLQMNSLKPEDTAVYYCAAEYVGKGTPDDYDYWGQGTQVTVSS	high polyreactivity
QVQLVESGGGLVQAGGSLRLSCAASGSTLYYNAMGWYRQAPGKERELVAAISWSGGSTYYADSVKGRFTISRDNAKNTVYLQMNSLKPEDTAVYYCAADVNYYQHRLYYWGQGTQVTVSS	low polyreactivity
QVQLVESGGGLVQAGGSLRLSCAASGSTLYYYAMGWYRQAPGKERELVAAITYSGGNTYYADSVKGRFTISRDNAKNTVYFQMNSLKPEDTAVYYCAADDWSSDYIRYEYWGQGTQVTVSS	low polyreactivity
QVQLVESGGGLVQAGGSLRLSCAASGSTLYYYAMGWYRQAPGKERELVATITNGGSTNYADSVKGRFTISRYNAKNTVYLQMNSLKPEDTAVYYCNARRGYWGSNYWGEGTQVTVSS	high polyreactivity
QVQLVESGGGLVQAGGSLRLSCAASGSTLYYYAMGWYRQAPGTERELGAAITWSGDSTYYADSVKGRFTISRDNAKNTVYLQMNSLKPEDTAVYYCAAEVESYDPYYTYDYWGQGTQVTVSS	high polyreactivity
QVQLVESGGGLVQAGGSLRLSCAASGSTNGRNAIGWSRQAPRKERELVAAISSGGSTSYADSVKVRFTISRDNAKYTDYLQMNSLKPVDTAVYYCAAQSVGSQYDYWGQGTQVTVSS	low polyreactivity
QVQLVESGGGLVQAGGSLRLSCAASGSTNRAYAMGWYRQAPGKERELVAAISYSGDSTYYADSVKGRFTISRDNAKNTVYLQMNSLKPEVTAVYYCNTAVWGPHRYDYWGQGTQVTVSS	low polyreactivity
QVQLVESGGGLVQAGGSLRLSCAASGSTPVYAMGWYRQAPGKERELVAAIRRRASSTYYADSVKGRFTISRDNAKNPVYLQMNSLKPEDTAVYYCAVGRVNGVLLGYWGQGTQVTVSS	high polyreactivity
QVQLVESGGGLVQAGGSLRLSCAASGSTQYGYAMGWYRQAPRKERELVAAINTGGSTNYADSVKGRFSISRDNAKNSVYLQMNSLKPEDTAVYYCAADYEWDAFSYDYWGQGTQVTVSS	low polyreactivity
QVQLVESGGGLVQAGGSLRLSCAASGSTSDINAMGWYRQAPGKERELVAVITFSGGSTNYADSVKGRFTISRDNAKNTVYLQMNSLKPEDTAVYYCNADTLTTTRRFNPYDYWGQGTQVTVSS	low polyreactivity
QVQLVESGGGLVQAGGSLRLSCAASGSTSGFYAMGWYRQAPGKERELVAAIDVSGGSTYYADSVKGRFTISRDNAKNTVYLQIHSLKPEDTAVYYCAAYRRNVWSARYGYWGQGTQVTVSS	high polyreactivity

Sequence	polyreactivity (PSR sort gate)
QVQLVESGGGLVQAGGSLRLSCAASGSTSGIYAMGWSRQAPGKERELVAAIDTSGGSTYADSVKGRFTISRDNAKNTVYLQMNSLKPEATAVYYCARTWGLRYRWSYGRSRYNFWGQGTQVTVSS	low polyreactivity
QVQLVESGGGLVQAGGSLRLSCAASGSTSGKNAMGWYRQAPGKERELVAAIRNSGGTTYYADSVKGRFTISRDNAKNTVYLQMNSLKPEDTAVYYCATRYYLKFLDGYNYWGQGTQVTVSS	high polyreactivity
QVQLVESGGGLVQAGGSLRLSCAASGSTSGRNVMGWYRQSPGKERELVAAISSRGGSTYYADSVKGRFTISRDNEKNTVYLQMNSLKPEDTAVYYCASRYGAYSGYDYWGQGTQVTVSS	high polyreactivity
QVQLVESGGGLVQAGGSLRLSCAASGSTSIYYTMGWYRQAPGKERELVAYADSVKGRFTISRDNAKNTVYLQMNSMKPEDTEVYFCAAPRTYYSELTSPYDYWGQGTQVTVSS	low polyreactivity
QVQLVESGGGLVQAGGSLRLSCAASGSTSLGYAMGWYRQAPGKERELVASISWTGGGTYYADSVKGRFTLSRDNAKNTVYLQMNSLKPDDTAVYYCAADLTGYHPYIYGYWGQGTQVTVSS	low polyreactivity
QVQLVESGGGLVQAGGSLRLSCAASGSTSNVYAMGWYRQAPGKERELVAAIRWSGGNTYYADSVKGRFTISRDNAKNTFYLQMNSLKPEDTAVYYCAAFYRYVSTIFDYWGQGTQVTVSS	high polyreactivity
QVQLVESGGGLVQAGGSLRLSCAASGSTSPFNAMGWYRQAPGKERELVASITSSGSTNYADSVKGLFTISRDNAKYTVYFQMNSLKPEDTAVYYCATEGVVSETIYDYWGQGSQVTVSS	low polyreactivity
QVQLVESGGGLVQAGGSLRLSCAASGSTSPFYVMGWYRQAPGKERELVAAISYSGGSTYYADSVKGRFTISRDNAKNTVYLQMISLKPEDTAVYYCAARYRLTYGLYGYWGQGTQVTVSS	high polyreactivity
QVQLVESGGGLVQAGGSLRLSCAASGSTSPGYAMGWYRLEPGKERELVAAITFRGTRTYYADSVKGRFTISRDNAKKTVYLLMNSLKPEDTAVYYCNVVGYGPNRGRVDYWGQGTQVTVSS	high polyreactivity
QVQLVESGGGLVQAGGSLRLSCAASGSTSPGYAMGWYRQAPGKERELVAAITFRGTRTYYSDSVKGRFTISRDNAKNTVYLQMNSQKPDDTAVYYCNVVGYGPNRGRVDYCGQGTQVTVSS	high polyreactivity
QVQLVESGGGLVQAGGSLRLSCAASGSTSPYYDRGWSRQAPGKERELVAAITSGGSTNYADSVKGRFTISRDYAKNSVYLQMNSLKPEDTAVYYCATDWSDDLWTWYYYWGQGTQVTVSS	high polyreactivity
QVQLVESGGGLVQAGGSLRLSCAASGSTSRQYAMGWYRQAPGKERELVAAITWSGASTNYADSVKGRFTISRDNAKNTVYLQMNSLKREDTAVYYCAAYRWVYPDVIYDYWGQGTQVTVSS	high polyreactivity
QVQLVESGGGLVQAGGSLRLSCAASGSTSSVYAMGWYRQAPGKERELVAAISYRGARTYYADSVKGRFTISRDNAKNTVYFQMNSLKPEDTAVYYCAAENYPRRPRYDYWGQATQVTVSS	high polyreactivity
QVQLVESGGGLVQAGGSLRLSCAASGSTSTWYAMGWYRQAPGKERELVATITGSGDTTYYADSVKGRFTISRDNAKNTVYLQMNSLKPEDTAVYYCAADYDPDDDTYDYWGQGTQVTVSS	low polyreactivity
QVQLVESGGGLVQAGGSLRLSCAASGSTSTYYAMGWYRQAPWKERELVAANTLGAGRTYADSEKGRFTISRDNAKNTVSLQMNSLKPEDTAVYYCAADGYISVNYLRYDYWGQGTQVTVSS	low polyreactivity
QVQLVESGGGLVQAGGSLRLSCAASGSTSVDYTMGLYRQAPGKERELVAAIDYNGDSTYYADSVKGRFTISRDNAKNTVYLQMNSLKPEDTAVYYCAADYLSFVVVKLYGYWGQGTQVTVSS	low polyreactivity
